Several values for one entry are separate records, joined by “and”; a condition that tells them apart may be missing. Equal entries are not always repeated.
How the values were obtained:
HER2 ECD [1] = target: T1, HER2 ECD (human, UniProt P04626 23-652); assay: SPR Biacore 8K, captured Ab, HER2 ECD analyte; replicate 1
T1 construct: extracellular domain; also called HER2/neu; ErbB2

HER2 ECD [2] = target: T1, HER2 ECD; assay: SPR Biacore 8K, captured Ab, HER2 ECD analyte; replicate 2
HER2 ECD [3] = target: T1, HER2 ECD; assay: SPR Biacore 8K, captured Ab, HER2 ECD analyte; printed mean

B1: HER-78 anti-HER2 bispecific antibody molecule (bispecific antibody)
chain 1: QVQLVQSGAEVKKPGASVKVSCKASGYSFTGYFINWVREAPGQGLEWMGHISSSYATSTYNQKFQGRVTFTVDTSSSTAYMELSSLRSEDTAVYYCVRSGNYEEYAMDYWGQGTLVTVSS
chain 2: not shown
Kd (HER2 ECD [1]): 0.54 nM and 0.544 nM
koff (HER2 ECD [1]): 7.53e-05 s⁻¹
kon (HER2 ECD [1]): 138000 M⁻¹ s⁻¹
Kd (HER2 ECD [2]): 0.57 nM
koff (HER2 ECD [2]): 9.89e-05 s⁻¹
kon (HER2 ECD [2]): 174000 M⁻¹ s⁻¹
Kd (HER2 ECD [3]): 0.44 nM and 0.436 nM
koff (HER2 ECD [3]): 7.28e-05 s⁻¹
kon (HER2 ECD [3]): 164000 M⁻¹ s⁻¹

Reference: patent US20250223376A1 (VOYAGER THERAPEUTICS, published 2025)
